Laboratory results published in paper PMC7302216.

Target: SARS-CoV 2P DS S (SARS-CoV) (UniProt P59594)
Test: negative-stain electron microscopy

For “SARS-CoV 2P DS S (from UniProt P59594 14-1195) (domain or fragment)”, the stoichiometry N was 3.
